Five molecules from article PMC11763261 can be followed below.

T1: CTB5-MBP (OsHox14, HD-Zip I) (Oryza sativa (japonica; KMXBG or Towada …, UniProt Q7XI85 1-240)
T1 sequence: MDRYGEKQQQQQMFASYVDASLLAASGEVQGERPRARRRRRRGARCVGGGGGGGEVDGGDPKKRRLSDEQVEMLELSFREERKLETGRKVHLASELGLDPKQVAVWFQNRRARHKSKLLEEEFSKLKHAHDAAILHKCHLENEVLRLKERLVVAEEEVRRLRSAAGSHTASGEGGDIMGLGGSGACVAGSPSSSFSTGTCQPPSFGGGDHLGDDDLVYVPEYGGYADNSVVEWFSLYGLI

B1: OsGA3ox1 promoter probe mutant (dsDNA)
DNA 1: ATAGGAAAAAAAATTGGGGGGGGCTTAAATTTTTTGAA
DNA 2: TTCAAAAAATTTAAGCCCCCCCCAATTTTTTTTCCTAT
B2: OsGA2ox6 promoter probe mutant (dsDNA)
DNA 1: CGGGGATGTGCAGTTCCCCCCATTTTGTATAAGATT
DNA 2: AATCTTATACAAAATGGGGGGAACTGCACATCCCCG
B3: PYL9 promoter probe WT (AH1 motif) (dsDNA)
DNA 1: AAAATATATTCAATTATTGATTTGAAACTA
DNA 2: TAGTTTCAAATCAATAATTGAATATATTTT
B4: OsGA2ox6 promoter probe WT (dsDNA)
DNA 1: CGGGGATGTGCAGTTTAATTAATTTTGTATAAGATT
DNA 2: AATCTTATACAAAATTAATTAAACTGCACATCCCCG
B5: OsGA3ox1 promoter probe WT (dsDNA)
DNA 1: ATAGGAAAAAAAATTAATAATTACTTAAATTTTTTGAA
DNA 2: TTCAAAAAATTTAAGTAATTATTAATTTTTTTTCCTAT

For the data set, the target named is T1, CTB5-MBP (OsHox14, HD-Zip I). Nature of the data set: EMSA.
B1: the binding result was “no binding”.
With B2, the binding result is reported as “no binding”.
With B3, the binding result is “binds”.
On to B4, for which the binding result is “binds”.
For B5, the binding result is on record as “binds”.
